Experimental data reported in publication PMC6973308.

Key:
[1] = biological target: anti-HER2 (trastuzumab) heavy chain, produced alone; test: HPLC-MS
[2] = biological target: anti-HER2 (trastuzumab) heavy chain, produced alone; test: SDS-PAGE
[3] = biological target: anti-HER2 (trastuzumab) heavy chain, produced alone; test: SEC
[4] = biological target: anti-HER2 (trastuzumab) light chain, produced alone; test: SEC
[5] = biological target: anti-HER2 (trastuzumab) light chain, produced alone; test: SDS-PAGE

Row | Substance | stoichiometry N [1] | stoichiometry N [2] | % Area of monomer mAb (SEC-HPLC) [3] | stoichiometry N [4] | percent of LC dimers covalently bonded (42 KDa band) [5]
1 | anti-HER2 (trastuzumab) heavy chain, produced alone (domain or fragment) | 2 | 2 | – | – | –
2 | anti-HER2 (trastuzumab) light chain, produced alone (domain or fragment) | – | – | 90.1 % Area | 2 | 55%
